From paper PMC9808371, “Extracellular Galectin 4 Drives Immune Evasion and Promotes T-cell Apoptosis in Pancreatic Cancer” (Cancer Immunology Research, 2022)

Experiments:
[1] = molecular target: T1, human recombinant CD3ε/δ heterodimer (human, UniProt P07766 23-126; P04234 22-105, N-linked glycosylations (sites not given)); assay: SPR; CD3 heterodimers amine-coupled at pH 4 to CM5 chips (mouse CD3ε/δ 3,900 RU, human CD3ε/δ 9,800 RU, human CD3ε/γ 8,900 RU); gal 4 as analyte, 2-fold dilutions 16 to 0.5 μmol/L, 120 s association, 120 s dissociation; 25°C; 10 mmol/L phosphate pH 7.4, 140 mmol/L NaCl, 0.27 mmol/L KCl, 0.05% Tween 20; Biacore T-200; settings: both partners purified
T1 construct: CD3 epsilon chain, human; CD3 delta chain, human; it is probably made of the extracellular domains with vendor tags (surmise); The vendor's catalogue entry would give them; also called human CD3ε/δ; CD3δ/ε; source: bought: ACROBiosystems, CDD-H52wa-100 μg

[2] = molecular target: T2, human recombinant CD3ε/δ heterodimer (human, UniProt P07766 23-126; P04234 22-105, N-linked glycosylations (sites not given)); assay: SPR
T2 chain 1: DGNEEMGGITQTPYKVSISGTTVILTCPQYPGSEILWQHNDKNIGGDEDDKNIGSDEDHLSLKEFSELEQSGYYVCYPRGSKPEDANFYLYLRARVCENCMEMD
T2 chain 2: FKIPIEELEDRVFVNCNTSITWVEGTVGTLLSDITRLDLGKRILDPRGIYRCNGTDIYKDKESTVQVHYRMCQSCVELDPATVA

[3] = molecular target: T3, human recombinant CD3ε/γ heterodimer (human, UniProt P07766 23-126; P09693 23-116); assay: SPR
T3 chain 1: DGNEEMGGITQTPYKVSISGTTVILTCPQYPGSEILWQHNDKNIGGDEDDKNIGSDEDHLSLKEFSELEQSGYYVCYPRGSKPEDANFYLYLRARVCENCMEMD
T3 chain 2: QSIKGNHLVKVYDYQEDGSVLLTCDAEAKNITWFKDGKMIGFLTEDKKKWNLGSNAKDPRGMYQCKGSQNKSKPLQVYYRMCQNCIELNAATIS

B1: human recombinant galectin 4 (natural protein, UniProt P56470 1-323, looked up)
chain: MAYVPAPGYQPTYNPTLPYYQPIPGGLNVGMSVYIQGVASEHMKRFFVNFVVGQDPGSDVAFHFNPRFDGWDKVVFNTLQGGKWGSEERKRSMPFKKGAAFELVFIVLAEHYKVVVNGNPFYEYGHRLPLQMVTHLQVDGDLQLQSINFIGGQPLRPQGPPMMPPYPGPGHCHQQLNSLPTMEGPPTFNPPVPYFGRLQGGLTARRTIIIKGYVPPTGKSFAINFKVGSSGDIALHINPRMGNGTVVRNSLLNGSWGSEEKKITHNPFGPGQFFDLSIRCGLDRFKVYANGQHLFDFAHRLSAFQRVDTLEIQGDVTLSYVQI
notes: galectin 4 (LGALS4), Homo sapiens, cDNA NM_006149.4 recloned from pcDNA3.1-C-(k)DYK into pET-His1a (NcoI + Acc65I); The Hisx6-TEV tag was removed before use; also called gal 4; hgal 4; source: E. coli Rosetta (DE3), purified (NiNTA, tag removal with TEV protease, second NiNTA run); not shown: His6, N-terminal, cleaved
fold affinity against CD3γ/ε [1]: 10 fold | Kd [2]: ~1 µM | Kd [3]: ~10 µM
